Reference: patent publication EP4722249A1 (AIMED BIO INC., dated 2026)
Each block holds one molecule with its values, some of them ahead of it.

How the values were obtained:
[1] = target: T1, human CD200R1 on cells (HH, Jurkat-CD200R1, U937-CD200R1) (human) (UniProt Q8TD46); test: flow cytometry, Jurkat-CD200R cells
T1 sequence (looked up): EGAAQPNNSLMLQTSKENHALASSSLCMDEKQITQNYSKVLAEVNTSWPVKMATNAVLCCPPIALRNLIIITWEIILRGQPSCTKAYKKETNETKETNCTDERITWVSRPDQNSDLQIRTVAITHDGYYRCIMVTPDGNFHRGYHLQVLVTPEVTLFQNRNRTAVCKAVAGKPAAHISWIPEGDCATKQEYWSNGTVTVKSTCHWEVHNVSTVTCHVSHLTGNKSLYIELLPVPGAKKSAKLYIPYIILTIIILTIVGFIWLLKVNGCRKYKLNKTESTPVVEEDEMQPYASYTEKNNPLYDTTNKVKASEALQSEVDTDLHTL

[2] = target: T1, human CD200R1 on cells (HH, Jurkat-CD200R1, U937-CD200R1) (human); test: flow cytometry, U937-CD200R cells
[3] = target: T1, human CD200R1 on cells (HH, Jurkat-CD200R1, U937-CD200R1) (human); test: flow cytometry, HH cells
[4] = target: T1, human CD200R1 on cells (HH, Jurkat-CD200R1, U937-CD200R1) (human); test: cell-based or functional assay
[5] = target: T2, human CD200R1 recombinant protein (human) (UniProt Q8TD46); test: ELISA of hybridoma clones on human CD200R1
T2 sequence (looked up): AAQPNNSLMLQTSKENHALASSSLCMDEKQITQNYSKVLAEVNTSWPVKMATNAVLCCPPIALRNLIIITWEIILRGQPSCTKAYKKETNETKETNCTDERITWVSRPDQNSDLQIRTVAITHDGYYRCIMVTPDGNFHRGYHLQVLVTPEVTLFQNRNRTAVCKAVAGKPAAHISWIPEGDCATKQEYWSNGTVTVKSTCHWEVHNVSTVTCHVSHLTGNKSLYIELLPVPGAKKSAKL

[6] = target: T3, mouse CD200R1 protein (R&D systems, 2554-CD) (mouse, UniProt Q9ES57 26-238); test: ELISA on coated mouse CD200R1 protein
T3 construct: the same entry is used
T3 sequence (looked up): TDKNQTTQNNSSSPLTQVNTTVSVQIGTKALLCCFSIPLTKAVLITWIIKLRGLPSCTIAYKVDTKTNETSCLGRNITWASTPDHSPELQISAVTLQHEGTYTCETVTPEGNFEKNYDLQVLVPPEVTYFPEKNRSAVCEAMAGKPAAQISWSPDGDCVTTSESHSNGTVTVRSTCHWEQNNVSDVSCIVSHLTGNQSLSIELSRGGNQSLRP

Molecule: LY3454738 (US 2020/0087395, I-4P, Eli Lilly) (antibody)
EC50 [1]: 43.5 nM | EC50 [2]: 152 nM | EC50 [3]: 82.7 nM | EC50 (nM), degree of signal transduction by the Dok2 protein, Jurkat-CD200R1 reporter cells [4]: > 10000 nM | IC50 (nM) of IL-6 suppression, LPS-treated U937-CD200R1 cells [4]: 1.72 nM | IC50 (nM) of TNF-α suppression, LPS-treated U937-CD200R1 cells [4]: 6.03 nM | IL-6 (pg/ml), LPS-treated U937-CD200R1 cells, log [Ab] (M) -7 [4]: 523 pg/ml | IL-6 (pg/ml), LPS-treated U937-CD200R1 cells, log [Ab] (M) -8 [4]: 1330 pg/ml | IL-6 (pg/ml), LPS-treated U937-CD200R1 cells, log [Ab] (M) -9 [4]: 2670 pg/ml | IL-6 (pg/ml), LPS-treated U937-CD200R1 cells, log [Ab] (M) -10 [4]: 3380 pg/ml | IL-6 (pg/ml), LPS-treated U937-CD200R1 cells, log [Ab] (M) -11 [4]: 3550 pg/ml | IL-6 (pg/ml), LPS-treated U937-CD200R1 cells, log [Ab] (M) -12 [4]: 4530 pg/ml | RLU (a.u.), phospho-Dok2 luminescence, Jurkat-CD200R1 reporter cells, antibody dose 0.05 nM [4]: 9260 a.u. | RLU (a.u.), phospho-Dok2 luminescence, Jurkat-CD200R1 reporter cells, antibody dose 0.10 nM [4]: 8400 a.u. | RLU (a.u.), phospho-Dok2 luminescence, Jurkat-CD200R1 reporter cells, antibody dose 0.20 nM [4]: 8000 a.u. | RLU (a.u.), phospho-Dok2 luminescence, Jurkat-CD200R1 reporter cells, antibody dose 0.39 nM [4]: 8960 a.u. | RLU (a.u.), phospho-Dok2 luminescence, Jurkat-CD200R1 reporter cells, antibody dose 0.78 nM [4]: 8900 a.u. | RLU (a.u.), phospho-Dok2 luminescence, Jurkat-CD200R1 reporter cells, antibody dose 1.56 nM [4]: 9100 a.u. | RLU (a.u.), phospho-Dok2 luminescence, Jurkat-CD200R1 reporter cells, antibody dose 3.13 nM [4]: 9470 a.u. | RLU (a.u.), phospho-Dok2 luminescence, Jurkat-CD200R1 reporter cells, antibody dose 6.25 nM [4]: 8930 a.u. | RLU (a.u.), phospho-Dok2 luminescence, Jurkat-CD200R1 reporter cells, antibody dose 12.5 nM [4]: 13000 a.u. | RLU (a.u.), phospho-Dok2 luminescence, Jurkat-CD200R1 reporter cells, antibody dose 25 nM [4]: 22700 a.u. | RLU (a.u.), phospho-Dok2 luminescence, Jurkat-CD200R1 reporter cells, antibody dose 50 nM [4]: 25600 a.u. | TNF-α (pg/ml), LPS-treated U937-CD200R1 cells, log [Ab] (M) -7 [4]: 472 pg/ml | TNF-α (pg/ml), LPS-treated U937-CD200R1 cells, log [Ab] (M) -8 [4]: 1040 pg/ml | TNF-α (pg/ml), LPS-treated U937-CD200R1 cells, log [Ab] (M) -9 [4]: 1480 pg/ml | TNF-α (pg/ml), LPS-treated U937-CD200R1 cells, log [Ab] (M) -10 [4]: 3760 pg/ml | TNF-α (pg/ml), LPS-treated U937-CD200R1 cells, log [Ab] (M) -11 [4]: 4950 pg/ml | TNF-α (pg/ml), LPS-treated U937-CD200R1 cells, log [Ab] (M) -12 [4]: 5490 pg/ml

B1: 5E9 (antibody, V domains shown)
VH: QVQLQQSGAELARPGASVKLSCKASGYTFTSYWMQWVKQRPGQGLEWIGAIYPGDGDTRYTQKFKGKATLTADKSSSTAYMQLRSLASEDSAVFYCARGGVTTLVPYFFDYWGQGATLTVSS
VL: DVLMTQTPLSLPVSLGDQASISCRSSQSIVHSNGNTYLEWYLQKPGQSPKLLIYKVSNRFSGVPDRFSGSGSGTDFTLKISRVEAEDLGVYYCFQGSHVPPTFGGGTKLEIK
ELISA O.D. [5]: > 1.5 O.D.

B2: 1F1 (antibody, V domains shown)
VH: QVQLQQPGAEFVKPGAPVKLSCKASGYTFTSYWMNWVKQRPGRGLEWIGRIDPADSEIHYNQKFKDKATLTVDKSSSTAYIQFSSLTSEDSAVYYCARSGGWLPGFAYWGQGTLVTVSA
VL: ENVLTQSPAIMSASPGEKVTMTCSASSSLIYMHWYQQKSSTSPKLWIYDTSKLASGVPGRFSGSGSGNSYSLTINSMEAEDVATYYCFQGSGYPLMYTFGGGTKLEIK
ELISA O.D. [5]: > 1.5 O.D.

B3: 6A8 (antibody, V domains shown)
VH: QVQLQQPGAELVKPGAPVKLSCKASGYTFTSYWMNWVKQRPGRGLEWIGRIDPSDSETHYNQKFKDKATLTVDKSSSTAYIQLSSLTSEDSAVYYCARSGGWLPGFAYWGQGTLVTVSA
VL: ENVLTQSPAIMSASPGEKVTMTCSASSSLSYMLWYQQKSSTSPKLWIYDTSKLASGVPGRFSGSGSGNSYSLTISSMEAEDVGTYYCFQGSGNPLMYTFGGGTKLEIK
ELISA O.D. [5]: > 1.5 O.D.

B4: 3G4 (antibody, V domains shown)
VH: QVQLQQPGAELVKPGAPVKLSCKASGFTLTSYWMNWVKQRPGRGLEWIGRIDPSDSETHYNQKFKDKATLTVDKSSSTAYIQLTSLTSEDSAVYYCARSGGWLPGFAYWGQGTLVTVSA
VL: ENVLTQSPAIMSASPGEKVTMTCSARSSVSYMHWYQQKSRTSPKLWIYDTSKLASGVPGRFSGSGSGNSYSLTISSMEAEDVATYYCFQGSGDPLMYTFGGGTKLEIK
ELISA O.D. [5]: > 1.5 O.D.

B5: 1H10 (antibody, V domains shown)
VH: QVQLQQPGAELVKPGTSVKLSCKASGYNFTSYWINWVKLRPGQGLEWIGDINPGSGSTNYNEKFRSKATLTVGTSSSTAYMQLSSLASEDSALYYCAREDYYGSRFFYWGQGTLVTVSA
VL: DVVMTQTPLSLPVSLGDQASISCRSSQSLVHSNGNTYLHWYLQKPGQSPKLLIYKVSNRFSGVPDRFSGSGSGTDFTLKISRVEAEDLGVYFCSQSTHVTFGAGTKLELK
ELISA O.D. [5]: > 1.5 O.D.

binding result [6]: no binding (tested: up to 300 nM)
B6: P001015 (antibody, V domains shown)
VH: EVQLLESGGGLVQPGGSLRLSCAASGFTFSSYDMSWVRQVPGKGLEWVSWISHGGGSIYYADSVKGRFTISRDNSKNTLYLQMNSLRAEDTAVYYCARDAPAYSAPLFDYWGQGTLVTVSS
VL: QSVLTQPPSASGTPGQRVTISCSGSSSNIGNNAVNWYQQLPGTAPKLLIYYDSNRPSGVPDRFSGSKSGTSASLAISGLRSEDEADYYCAAWDDSLSGYVFGGGTKLTVL

B7: 6C3 (antibody, V domains shown)
VH: QVQLQQPGAELVRPGASVKLSCKASAYTFTSYWMNWVKQRPEQGLEWIGRIDPYDSETHYNQKFKDKAILTVDKSSSTAYMQLSSLTSEDSAVYYCARVDGNHLFDYWGQGTTLTVSS
VL: DIKMTQSPSSMYASLGERVTITCKASQDINSYLSWFQQKPGKSPKTLIYRANRLVDGVPSRFSGSGSGQDYSLTISSLEYEDMGIYYCLQYDEFPYTFGGGTKLEIK
ELISA O.D. [5]: > 1.5 O.D.

B8: 6A10 (antibody, V domains shown)
VH: QLQQSGAELVRSGASVKLSCTASGFNIKDYYLHWIKQRPEQGLEWIGWIDPENGDTEYAPKFQGKATMTADTSSNTAYLQLISLTSEDAAVYYCFAGGSYWGQGTSVTVSS
VL: DIVMTQSPSSLSVSAGEKVTMSCKSSQSLLNSGNQKNYLAWYQQKPGQPPKLLIYGASTRESGVPDRFTGSGSGTDFTLTISSVQAEDLAVYYCQNDHSYPYTFGGGTKLEIK
ELISA O.D. [5]: > 1.5 O.D.
